Laboratory results taken from US20050037432.

T1: Alpha-2-Macroglobulin
T1 chain: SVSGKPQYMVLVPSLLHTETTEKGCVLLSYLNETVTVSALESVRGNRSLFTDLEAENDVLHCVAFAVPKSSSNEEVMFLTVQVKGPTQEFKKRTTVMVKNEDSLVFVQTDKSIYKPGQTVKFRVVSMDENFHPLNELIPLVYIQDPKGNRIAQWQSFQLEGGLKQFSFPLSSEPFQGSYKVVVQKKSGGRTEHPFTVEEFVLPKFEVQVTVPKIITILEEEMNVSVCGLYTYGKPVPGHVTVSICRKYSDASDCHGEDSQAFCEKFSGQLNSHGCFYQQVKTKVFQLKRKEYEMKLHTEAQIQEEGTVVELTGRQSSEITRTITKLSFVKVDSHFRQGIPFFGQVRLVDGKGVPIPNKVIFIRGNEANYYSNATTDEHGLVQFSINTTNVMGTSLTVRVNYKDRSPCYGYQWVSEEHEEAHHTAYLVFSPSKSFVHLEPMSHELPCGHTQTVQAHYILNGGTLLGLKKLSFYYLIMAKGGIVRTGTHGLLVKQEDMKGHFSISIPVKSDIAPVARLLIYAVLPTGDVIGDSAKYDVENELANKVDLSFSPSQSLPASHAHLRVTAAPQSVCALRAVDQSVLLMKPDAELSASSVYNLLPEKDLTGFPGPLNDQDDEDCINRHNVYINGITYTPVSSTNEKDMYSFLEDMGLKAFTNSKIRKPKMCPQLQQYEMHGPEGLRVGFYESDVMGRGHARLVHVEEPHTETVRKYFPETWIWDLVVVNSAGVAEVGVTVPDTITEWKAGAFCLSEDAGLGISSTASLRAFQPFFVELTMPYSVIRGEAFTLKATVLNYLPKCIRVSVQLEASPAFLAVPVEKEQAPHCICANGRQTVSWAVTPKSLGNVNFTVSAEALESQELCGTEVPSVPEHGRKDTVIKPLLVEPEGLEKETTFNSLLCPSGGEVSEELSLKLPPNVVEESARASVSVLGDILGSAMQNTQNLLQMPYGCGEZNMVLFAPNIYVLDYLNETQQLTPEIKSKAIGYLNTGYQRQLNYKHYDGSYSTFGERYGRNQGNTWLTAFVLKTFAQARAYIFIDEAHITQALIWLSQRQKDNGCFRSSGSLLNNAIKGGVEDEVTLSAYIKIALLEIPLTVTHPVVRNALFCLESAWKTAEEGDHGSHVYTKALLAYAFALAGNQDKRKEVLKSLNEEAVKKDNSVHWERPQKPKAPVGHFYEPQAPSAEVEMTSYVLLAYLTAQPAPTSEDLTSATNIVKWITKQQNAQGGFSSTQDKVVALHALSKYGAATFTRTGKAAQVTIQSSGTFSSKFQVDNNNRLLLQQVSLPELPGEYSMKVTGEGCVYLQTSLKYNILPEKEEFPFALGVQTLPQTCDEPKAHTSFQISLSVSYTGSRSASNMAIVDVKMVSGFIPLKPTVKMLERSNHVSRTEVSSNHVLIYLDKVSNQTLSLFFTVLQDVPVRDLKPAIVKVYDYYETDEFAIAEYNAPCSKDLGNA


Molecular target: T1, Alpha-2-Macroglobulin

| Protein | generation of α2M neoepitopes on digestion (50 ng α2M, 100 ng enzyme, 37° C., 1-30 min) |
| --- | --- |
| ADAMTS-4 (protein) FASLSRFVETLVVADDKMAAFHGAGLKRYLLTVMAAAAKAFKHPSIRNPVSLVVTRLVILGSGEEGPQVGPSAAQTLRSFCAWQRGLNTPEDSDPDHFDTAILFTRQDLCGVSTCDTLGMADVGTVCDPARSCAIVEDDGLQSAFTAAHELGHVFNMLHDNSKPCISLNGPLSTSRHVMAPVMAHVDPEEPWSPCSARFITDFLDNGYGHCLLDKPEAPLHLPVTFPGKDYDADRQCQLTFGPDSRHCPQLPPPCAALWCSGHLNGHAMCQTKHSPWADGTPCGPAQACMGGRCLHMDQLQDFNIPQAGGWGPWGPWGDCSRTCGGGVQFSSRDCTRPVPRNGGKYCEGRRTRFRSCNTEDCPTGSALTFREEQCAAYNHRTDLFKSFPGPMDWVPRYTGVAPQDQCKLTCQAQALGYYYVLEPRVVDGTPCSPDSSSVCVQGRCIHAGCDRIIGSKKKFDKCMVCGGDGSGCSKQSGSFRKFRYGYNNVVTIPAGATHILVRQQGNPGHRSIYLALKLPDGSYALNGEYTLMPSPTDVVLPGAVSLRYSGATAASETLSGHGPLAQPLTLQVLVAGNPQDTRLRYSFFVPRPTPSTPRPTPQDWLHRRAQILEILRRRPWAGRK | Both neoepitopes were generated as early as after 2 minutes of incubation, and increased over time, up to after 30 minutes of incubation |
| ADAMTS-5 (protein) SISRARQVELLLVADASMARLYGRGLQHYLLTLASIANRLYSHASIENHIRLAVVKVVVLGDKDKSLEVSKNAATTLKNFCKWQHQHNQLGDDHEEHYDAAILFTREDLCGHHSCDTLGMADVGTICSPERSCAVIEDDGLHAAFTVAHEIGHLLGLSHDDSKFCEETFGSTEDKRLMSSILTSIDASKPWSKCTSATITEFLDDGHGNCLLDLPRKQILGPEELPGQTYDATQQCNLTFGPEYSVCPGMDVCARLWCAVVRQGQMVCLTKKLPAVEGTPCGKGRICLQGKCVDKTKKKYYSTSSHGNWGSWGSWGQCSRSCGGGVQFAYRHCNNPAPRNNGRYCTGKRAIYRSCSLMPCPPNGKSFRHEQCEAKNGYQSDAKGVKTFVEWVPKYAGVLPADVCKLTCRAKGTGYYVVFSPKVTDGTECRLYSNSVCVRGKCVRTGCDGIIGSKLQYDKCGVCGGDNSSCTKIVGTFNKKSKGYTDVVRIPEGATHIKVRQFKAKDQTRFTAYLALKKKNGEYLINGKYMISTSETIIDINGTVMNYSGWSHRDDFLHGMGYSATKEILIVQILATDPTKPLDVRYSFFVPKKSTPKVNSVTSHGSNKVGSHTSQPQWVTGPWLACSRTCDTGWHTRTVQCQDGNRKLAKGCPLSQRPSAFKQCLLKKC | Both neoepitopes were generated as early as after 2 minutes of incubation, and increased over time, up to after 30 minutes of incubation |
